For three molecules, Classification and Kd results are on record in patent publication US20050282743A1, “Molecular interactions in cells” (Arbor Vita Corporation, priority 2001, published 2005).

The target in test [1] is T1, GST-APXL-1 PDZ domain 1 (Homo sapiens (Human)), Q13796.
T1 chain: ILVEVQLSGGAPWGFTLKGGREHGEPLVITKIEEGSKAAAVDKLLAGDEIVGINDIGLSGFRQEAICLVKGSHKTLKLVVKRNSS
Description: G' assay. Also: key of the grades not given here.

The target of test [2] is GST-CARD14 PDZ domain 1 (Homo sapiens (Human)), Q9BXL6. Description: G' assay. Also: key of the grades not given here.
Test [3] concerns the target T2, GST-DVL2 PDZ domain 1 (Homo sapiens (Human)), O14641.
T2 chain: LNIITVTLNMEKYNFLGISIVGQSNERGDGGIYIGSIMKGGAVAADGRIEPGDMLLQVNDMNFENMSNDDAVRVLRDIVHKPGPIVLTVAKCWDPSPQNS
Description: G' assay. Also: key of the grades not given here.

Test [4] has as its target T3, GST-GRIP 1 PDZ domain 5 (Homo sapiens (Human)), Q9Y3R0.
T3 chain: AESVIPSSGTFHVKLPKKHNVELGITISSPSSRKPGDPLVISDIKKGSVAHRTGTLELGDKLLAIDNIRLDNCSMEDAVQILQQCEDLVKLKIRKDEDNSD
Description: G' assay. Also: key of the grades not given here.

Test [5] has as its target T4, GST-KIAA0973 PDZ domain 1 (Homo sapiens (Human)), Q9Y2H9.
T4 chain: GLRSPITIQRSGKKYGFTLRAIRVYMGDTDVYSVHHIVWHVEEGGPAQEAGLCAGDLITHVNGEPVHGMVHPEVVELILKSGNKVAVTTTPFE
Description: G' assay. Also: key of the grades not given here.

Test [6] has as its target T5, GST-KIAA1719 PDZ domain 3 (Homo sapiens (Human)), Q9C0E4.
T5 chain: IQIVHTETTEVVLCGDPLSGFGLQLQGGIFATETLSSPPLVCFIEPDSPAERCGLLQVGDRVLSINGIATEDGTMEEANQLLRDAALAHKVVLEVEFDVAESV
Description: G' assay. Also: key of the grades not given here.

In test [7] the target is T6, GST-LU-1 PDZ domain 1 (Homo sapiens (Human)), Q76G19.
T6 chain: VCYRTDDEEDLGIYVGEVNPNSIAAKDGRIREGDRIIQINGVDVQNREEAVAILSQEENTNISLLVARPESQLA
Description: G' assay. Also: key of the grades not given here.

The target in test [8] is T7, GST-MINT1 PDZ domain 2 (Mus musculus (Mouse)), B2RUJ5.
T7 chain: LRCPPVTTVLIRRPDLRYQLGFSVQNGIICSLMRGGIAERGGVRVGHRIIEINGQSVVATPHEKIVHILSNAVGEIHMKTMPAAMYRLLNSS
Description: G' assay.

Test [9] addresses T8, GST-MUPP1 PDZ domain 4 (Homo sapiens (Human)), O75970.
T8 chain: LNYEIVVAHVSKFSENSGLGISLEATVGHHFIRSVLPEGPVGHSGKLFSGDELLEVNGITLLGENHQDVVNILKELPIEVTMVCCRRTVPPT
Description: G' assay.

In test [10] the target is T9, GST-PTPL1 PDZ domain 5 (Homo sapiens (Human)), Q12923.
T9 chain: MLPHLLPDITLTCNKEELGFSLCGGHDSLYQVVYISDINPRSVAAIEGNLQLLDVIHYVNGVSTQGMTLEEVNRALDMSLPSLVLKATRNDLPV
Description: G' assay.

In test [11] the target is T10, GST-HEMBA 1003117 PDZ domain 1 (Homo sapiens (Human)), Q96JH8.
T10 chain: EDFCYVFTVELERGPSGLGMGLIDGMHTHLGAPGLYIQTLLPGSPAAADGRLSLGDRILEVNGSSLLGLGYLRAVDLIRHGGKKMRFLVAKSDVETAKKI
Description: G' assay.

Test [12] has as its target T11, GST-MPP2 PDZ domain 1 (Homo sapiens (Human)), Q14168.
T11 chain: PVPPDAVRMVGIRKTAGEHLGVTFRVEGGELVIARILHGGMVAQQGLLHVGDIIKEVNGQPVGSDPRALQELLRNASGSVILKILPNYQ
Description: G' assay.

In test [13] the target is T12, GST-AIPC PDZ domain 1 (Homo sapiens (Human)), O15018.
T12 chain: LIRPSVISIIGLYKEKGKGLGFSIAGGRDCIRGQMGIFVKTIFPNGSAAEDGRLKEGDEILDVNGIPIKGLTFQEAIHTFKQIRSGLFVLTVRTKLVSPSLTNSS
Description: G' assay.

Test [14] deals with T13, GST-FLJ 10324 PDZ domain 1 [GST: P08515].
T13 chain: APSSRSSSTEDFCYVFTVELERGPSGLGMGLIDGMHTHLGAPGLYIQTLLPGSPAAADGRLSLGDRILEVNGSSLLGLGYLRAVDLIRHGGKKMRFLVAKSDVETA
Description: G' assay.

Test [15] concerns the target T14, GST-GRIP 1 PDZ domain 6 (Mus musculus (Mouse)), Q925T6.
T14 chain: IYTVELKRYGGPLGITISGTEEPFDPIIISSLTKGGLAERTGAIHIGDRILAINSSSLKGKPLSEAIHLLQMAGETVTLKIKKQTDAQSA
Description: G' assay.

Test [16] concerns the target T15, GST-INADL PDZ domain 3 (Homo sapiens (Human)), Q8NI35.
T15 chain: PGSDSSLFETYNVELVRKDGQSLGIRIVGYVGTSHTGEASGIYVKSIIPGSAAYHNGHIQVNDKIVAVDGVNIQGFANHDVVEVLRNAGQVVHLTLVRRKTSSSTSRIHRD
Description: G' assay.

Test [17] has as its target T16, GST-KIAA0380 PDZ domain 1 (Homo sapiens (Human)), O15085.
T16 chain: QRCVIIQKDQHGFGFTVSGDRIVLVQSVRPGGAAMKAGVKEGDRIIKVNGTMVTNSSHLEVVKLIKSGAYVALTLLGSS
Description: G' assay.

The target of test [18] is T17, GST-KIAA1719 PDZ domain 5 (Homo sapiens (Human)), Q9C0E4.
T17 chain: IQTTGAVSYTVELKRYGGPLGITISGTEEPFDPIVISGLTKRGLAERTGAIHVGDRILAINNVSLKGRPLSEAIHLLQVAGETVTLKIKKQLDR
Description: G' assay.

The target in test [19] is T18, GST-KIAA1719 PDZ domain 6 (Homo sapiens (Human)), Q9C0E4.
T18 chain: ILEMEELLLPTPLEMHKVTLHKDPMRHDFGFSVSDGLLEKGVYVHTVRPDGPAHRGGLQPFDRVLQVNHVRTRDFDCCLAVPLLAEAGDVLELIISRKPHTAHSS
Description: G' assay.

Test [20] deals with T19, GST-MINT1 PDZ domains 1, 2, Q02410.
T19 chain: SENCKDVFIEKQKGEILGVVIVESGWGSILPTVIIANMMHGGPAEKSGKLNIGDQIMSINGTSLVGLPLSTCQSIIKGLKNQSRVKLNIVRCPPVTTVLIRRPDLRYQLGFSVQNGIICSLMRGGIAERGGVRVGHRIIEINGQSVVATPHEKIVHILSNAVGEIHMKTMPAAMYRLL
Description: G' assay.

For test [21], the target named is T20, GST-MUPP1 PDZ domain 3 (Homo sapiens (Human)), O75970.
T20 chain: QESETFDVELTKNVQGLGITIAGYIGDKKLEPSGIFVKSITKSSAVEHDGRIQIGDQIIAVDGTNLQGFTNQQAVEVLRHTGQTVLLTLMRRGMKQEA
Description: G' assay.

The target in test [22] is T21, GST-MUPP1 PDZ domain 7 (Homo sapiens (Human)), O75970.
T21 chain: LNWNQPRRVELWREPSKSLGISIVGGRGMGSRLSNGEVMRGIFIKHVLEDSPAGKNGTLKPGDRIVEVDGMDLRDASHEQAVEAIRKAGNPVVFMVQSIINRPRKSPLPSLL
Description: G' assay.

In test [23] the target is T22, GST-MUPP1 PDZ domain 9 (Homo sapiens (Human)), O75970.
T22 chain: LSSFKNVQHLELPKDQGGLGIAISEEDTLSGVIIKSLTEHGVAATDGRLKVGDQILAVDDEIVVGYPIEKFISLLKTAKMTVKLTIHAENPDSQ
Description: G' assay.

Test [24] concerns the target GST-PAR3 PDZ domain 3 (Homo sapiens (Human)), Q8TEW0. Description: G' assay. Also: key of the grades not given here.
The target in test [25] is T23, GST-PICK1 PDZ domain 1 (Bos taurus (Bovine)), Q2T9M1.
T23 chain: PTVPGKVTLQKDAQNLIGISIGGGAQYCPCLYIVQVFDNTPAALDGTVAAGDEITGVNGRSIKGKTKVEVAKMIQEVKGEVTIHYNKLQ
Description: G' assay.

Test [26] deals with T24, GST-ZO-1 PDZ domain 2 (Rattus norvegicus (Rat)), A0A0G2.
T24 chain: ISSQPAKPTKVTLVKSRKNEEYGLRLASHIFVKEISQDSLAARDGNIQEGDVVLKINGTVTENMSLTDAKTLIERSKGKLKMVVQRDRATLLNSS
Description: G' assay.

The target of test [27] is GST-PAR3 PDZ domain 3 (Homo sapiens (Human)), Q8TEW0. Description: G assay titration, PDZ 1 ug/ml.
Test [28] concerns the target T12, GST-AIPC PDZ domain 1 (Homo sapiens …). Description: G assay titration, PDZ 5 ug/ml.
For test [29], the target named is T13, GST-FLJ 10324 PDZ domain 1 [GST: P08515]. Description: G assay titration, PDZ 5 ug/ml.
Test [30] addresses T14, GST-GRIP 1 PDZ domain 6 (Mus musculus …). Description: G assay titration, PDZ 5 ug/ml.
Test [31] has as its target T15, GST-INADL PDZ domain 3 (Homo sapiens …). Description: G assay titration, PDZ 5 ug/ml.
Test [32] deals with T17, GST-KIAA1719 PDZ domain 5 (Homo sapiens …). Description: G assay titration, PDZ 5 ug/ml.
In test [33] the target is T18, GST-KIAA1719 PDZ domain 6 (Homo sapiens …). Description: G assay titration, PDZ 5 ug/ml.
Test [34] concerns the target T19, GST-MINT1 PDZ domains 1, 2, Q02410. Description: G assay titration, PDZ 5 ug/ml.
The target in test [35] is T20, GST-MUPP1 PDZ domain 3 (Homo sapiens …). Description: G assay titration, PDZ 5 ug/ml.
For test [36], the target named is T21, GST-MUPP1 PDZ domain 7 (Homo sapiens …). Description: G assay titration, PDZ 5 ug/ml.
For test [37], the target named is T22, GST-MUPP1 PDZ domain 9 (Homo sapiens …). Description: G assay titration, PDZ 5 ug/ml.
The target of test [38] is T23, GST-PICK1 PDZ domain 1 (Bos taurus …). Description: G assay titration, PDZ 5 ug/ml.
The target of test [39] is T24, GST-ZO-1 PDZ domain 2 (Rattus …). Description: G assay titration, PDZ 5 ug/ml.

Chain of GST-PAR3 PDZ domain 3 (Homo sapiens (Human)), Q8TEW0 (Q8TEW0 579-681): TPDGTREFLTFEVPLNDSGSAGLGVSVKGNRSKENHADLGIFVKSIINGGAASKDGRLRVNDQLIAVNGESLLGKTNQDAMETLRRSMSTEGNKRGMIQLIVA
Chain of GST-CARD14 PDZ domain 1 (Homo sapiens (Human)), Q9BXL6 (Q9BXL6 565-664): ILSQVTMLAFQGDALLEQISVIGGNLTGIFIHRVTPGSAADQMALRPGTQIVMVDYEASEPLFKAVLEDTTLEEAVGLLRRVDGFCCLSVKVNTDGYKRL

DFRPSFKHILFRRARRGFRQ (modifications not checked) [alpha-2C Adrenergic receptor]: the Classification in test [1] stood at 3 A450 class; in test [2], 5 A450 class; in [3], 3 A450 class; in test [4], 1 A450 class; in test [5], 3 A450 class; in [6], 5 A450 class. Besides, the Classification amounted to 4 A450 class in test [7], 3 A450 class in [8], 3 A450 class in test [9] and 3 A450 class in test [10].

For LAVLAYSITLVMLWSIWQYA (modifications not checked) [Serotonin receptor 3a], the Classification in test [2], in test [11] and in test [12] was 2 A450 class throughout.

For the molecule HHLVAQRDIRQFQLQHWLAI (modifications not checked) [noradrenaline transporter], the Classification in test [13] was 2 A450 class; in test [14], 3 A450 class; in [15], 2 A450 class; in test [16], 3 A450 class; in test [17], 1 A450 class; in [18], 2 A450 class. The Classification in [19] was 2 A450 class; in test [20], 3 A450 class; in test [21], 4 A450 class; in test [22], 3 A450 class; in [23], 3 A450 class; in [24], 4 A450 class. For the same molecule, the Classification in test [25] came out at 1 A450 class; in test [26], 2 A450 class. Further, the Kd in test [27] was 600 nM; in test [28], 600 nM; in test [29], 600 nM; in test [30], 500 nM; in [31], 600 nM; in [32], 1000 nM. Further, the Kd in [33] stood at 800 nM; in test [34], 500 nM; in test [35], 400 nM; in test [36], 800 nM; in [37], 700 nM; in test [38], 1000 nM. The molecule further returned a Kd in test [39] of 400 nM.
